Key:
[1] = target: CD47 (UniProt Q08722); assay: competitive ELISA vs SIRPα
[2] = target: CD47 (UniProt Q08722); assay: flow cytometry, CD47-overexpressing cells

IC50 [1]: 0.499 nM
EC50 [2]: 5.59 nM
Substance: B6H12
